Data: patent US12227551B2, “Membrane bound IL12 compositions and methods for tunable regulation” (Obsidian Therapeutics, Inc., priority 2018, dated 2025)

Columns and labels:
CD19+ Nalm6 tumors = test: Kaplan-Meier animal survival, Nalm6-Luc NSG model (Example 9; Table 29); format: in vivo, NSG mice
Experimental: The study was designed to determine if membrane bound IL12 (mbIL12) expressed on CAR-T cells via a CD8 TM domain and CD8 Hinge Region promotes CAR T cell expansion in cis, promotes non-CAR-T cell expansion in trans, and/or increases in vivo CAR T cell efficacy against CD19+ Nalm6 tumors. To test in vivo anti-tumor activity, experiments were performed in NSG mice. Nalm6 cells were transfected with Redifect Red-Fluc (Perkin Elmer) under selection using Puromycin for ˜2 months to generate a line that stably expresses the luciferase reporter; thereafter named Nalm6-Luc. Ten days before tumor implantation, Nalm6-Luc cells were thawed and cultured in puromycin-containing media. On day 0, cells were counted, resuspended in PBS and injected into NSG mice via tail vein. On day 6, mice were imaged for bioluminescent intensity (BLI) and sorted into groups based on their tumor size ensuring that all groups had the same sized tumors. Human T cells were transduced with one of the following constructs as shown in the study design in Table 27:
Percent survival was also measured for each group during the course of the experiment and the following numbers were obtained as shown in Table 29: […]

[1] = test system: phospho-STAT4 in GFP+ T cells; test: Bystander effect: phospho-STAT4 in GFP+ T cells incubated 1 hour with co-culture supernatants, flow cytometry (Example 6; Table 20); format: cell-based, human
Experimental: Membrane bound IL12 (mbIL12) was expressed in tandem with a CD19-CAR and tested in primary human T cells. On day 0, primary human T cells were stimulated with Dynabeads (T-expander CD3/CD28) at a 3:1 bead:cell ratio in media containing 10% fetal bovine serum (FBS). The next day, lentivirus with mbIL12 in tandem with a CD19-CAR construct was added in the presence of reduced serum (5% FBS). After 7 days of T cell expansion, increasing numbers of CAR+ T cells were cocultured with 10,000 GFP+, CAR-negative T cells. At the end of 1 hour of co-culture, the phospho-STAT4 levels within the GFP+ T cells were quantitated by flow cytometry using reagents and methods from BD. To determine the relative amount of IL12 activity that had accumulated in the T cell supernatants during the hour-long co-culture, cell supernatants from the co-culture were transferred to a new plate of GFP+ T cells and incubated for 1 hour. Phospho-STAT4 levels were measured in the GFP+ T cells incubated with the supernatants from the original co-culture. The transactivation ([…] geometric mean fluorescence (MFI) on GFP+ cells in co-culture) and the bystander effect (pSTAT4 geometric MFI on GFP+ T cells in 1 hour supernatants) for a CAR-IL12+:GFP+ ratio of 64 are shown in Table 20.
The transactivation (pSTAT4 geometric mean fluorescence (MFI) on GFP+ cells in co-culture) and the bystander effect (pSTAT4 geometric MFI on GFP+ T cells in 1 hour supernatants) for the constructs at different ratios are summarized below. For OT-001407, when (a) the CAR-IL12+:GFP+ ratio was 32, the transactivation was 1711 and the bystander effect was −1680, (b) the CAR-IL12+:GFP+ ratio was 16, the transactivation was 1768 and the bystander effect was −1632, (c) the CAR-IL12+:GFP+ ratio was 8, the transactivation was 1433 and the bystander effect was −1603, (d) the CAR-IL12+:GFP+ ratio was 4, the transactivation was 1195 and the bystander effect was −1860, and (e) the CAR-IL12+:GFP+ ratio was 2, the transactivation was 1101 and the bystander effect was −1800. For OT-001356, when (a) the CAR-IL12+:GFP+ ratio was 73.9, the transactivation was 6452 and the bystander effect was −2617, (b) the CAR-IL12+:GFP+ ratio was 37, the transactivation was 6935 and the bystander effect was −1404, (c) the CAR-IL12+:GFP+ ratio was 18.5, the transactivation was 6417 and the bystander effect was −226, (d) the CAR-IL12+:GFP+ ratio was 9.2, the transactivation was 5568 and the bystander effect was −86, (e) the CAR-IL12+:GFP+ ratio was 4.6, the transactivation was 4374 and the bystander effect was −518, and (f) the CAR-IL12+:GFP+ ratio was 2.3, the transactivation was 2839 and the bystander effect was −1093. For OT-001895, when (a) the CAR-IL12+:GFP+ ratio was 34.1, the transactivation was 7699 and the bystander effect was −3724, (b) the CAR-IL12+:GFP+ ratio was 17.1, the transactivation was 7718 and the bystander effect was −2996, (c) the CAR-IL12+:GFP+ ratio was 8.5, the transactivation was 8200 and the bystander effect was −1178, (d) the CAR-IL12+:GFP+ ratio was 4.3, the transactivation was 7172 and the bystander effect was −277, (e) the CAR-IL12+:GFP+ ratio was 2.1, the transactivation was 6095 and the bystander effect was −238, and (f) the CAR-IL12+:GFP+ ratio was 1.1, the transactivation was 4498 and the bystander effect was −136. For OT-002011, when (a) the CAR-IL12+:GFP+ ratio was 75.8, the transactivation was 8086 and the bystander effect was −3531, (b) the CAR-IL12+:GFP+ ratio was 37.9, the transactivation was 8031 and the bystander effect was −2884, (c) the CAR-IL12+:GFP+ ratio was 18.9, the transactivation was 8324 and the bystander effect was −1376, (d) the CAR-IL12+:GFP+ ratio was 9.5, the transactivation was 7765 and the bystander effect was −1133, (e) the CAR-IL12+:GFP+ ratio was 4.7, the transactivation was 6682 and the bystander effect was −566, and (f) the CAR-IL12+:GFP+ ratio was 2.4, the transactivation was 5190 and the bystander effect was −642. […]

[2] = test system: CAR+ T cells and GFP+ T cells; test: CAR-T and GFP+ T cell expansion in peripheral blood by flow cytometry (Example 10; Table 37); format: in vivo, NSG mice; set-up: unit not given here; conditions: day 14 post T cell transfer, 1 million CAR+ T cells
Experimental: Next, holding total CAR+ T cell dose constant at 1 million cells per animal, transduced T cells were intravenously infused into mice on day 7. Tumors were monitored in mice using BLI and the mean of the Total Flux (photons/second) was calculated for each group as an indicator of tumor burden (Table 34). In order to track the trans effect of IL12 expressing CART cells on that lack expression of IL12, 10 million GFP+ T cells (negative for IL12) were co-infused with the IL12-expressing CAR+ T cells, and peripheral blood draws taken over time to evaluate the effect of IL12 on phenotypic changes in GFP+ T cells by flow cytometry analysis.
Thus, anti-tumor efficacy (Table 34) appears to correlate with CAR-T cell expansion.

T cells = test: Percentage of CAR positive cells after 10 days expansion (Example 7); format: cell-based; conditions: T cells expanded for 10 days

B1: OT-001356: CD19 CAR; stop; IRES; secreted IL12 (p40 23-328; (G4S)3; p35 57-253); nucleic acid SEQ ID NO: 482 (protein)
chain: IWELKKDVYVVELDWYPDAPGEMVVLTCDTPEEDGITWTLDQSSEVLGSGKTLTIQVKEFGDAGQYTCHKGGEVLSHSLLLLHKKEDGIWSTDILKDQKEPKNKTFLRCEAKNYSGRFTCWWLTTISTDLTFSVKSSRGSSDPQGVTCGAATLSAERVRGDNKEYEYSVECQEDSACPAAEESLPIEVMVDAVHKLKYENYTSSFFIRDIIKPDPPKNLQLKPLKNSRQVEVSWEYPDTWSTPHSYFSLTFCVQVQGKSKREKKDRVFTDKTSATVICRKNASISVRAQDRYYSSSWSEWASVPCSGGGGSGGGGSGGGGSRNLPVATPDPGMFPCLHHSQNLLRAVSNMLQKARQTLEFYPCTSEEIDHEDITKDKTSTVEACLPLELTKNESCLNSRETSFITNGSCLASRKTSFMMALCLSSIYEDLKMYQVEFKTMNAKLLMDPKRQIFLDQNMLAVIDELMQALNFNSETVPQKSSLEEPDFYKTKIKLCILLHAFRIRAVTIDRVMSYLNASGS
Proportion of survival post tumor implant (CD19+ Nalm6 tumors; day 0 post tumor implant): 100% | Proportion of survival post tumor implant (CD19+ Nalm6 tumors; day 41 post tumor implant): 50.0% | Proportion of survival post tumor implant (CD19+ Nalm6 tumors; day 43 post tumor implant): 50.0% | bystander effect (pSTAT4 geometric MFI on GFP+ T cells in 1 hour supernatants) ([1]; CAR-IL12+:GFP+ ratio 2.3): −1093 | bystander effect (pSTAT4 geometric MFI on GFP+ T cells in 1 hour supernatants) ([1]; CAR-IL12+:GFP+ ratio 4.6): −518 | bystander effect (pSTAT4 geometric MFI on GFP+ T cells in 1 hour supernatants) ([1]; CAR-IL12+:GFP+ ratio 9.2): −86 | bystander effect (pSTAT4 geometric MFI on GFP+ T cells in 1 hour supernatants) ([1]; CAR-IL12+:GFP+ ratio 18.5): −226 | bystander effect (pSTAT4 geometric MFI on GFP+ T cells in 1 hour supernatants) ([1]; CAR-IL12+:GFP+ ratio 37): −1404 | bystander effect (pSTAT4 geometric MFI on GFP+ T cells in 1 hour supernatants) ([1]; CAR-IL12+:GFP+ ratio 73.9): −2617 | Cis Effect: Numbers of CAR+ Cells on Day 14 [2]: 1777 | Trans Effect: Numbers of GFP+ Cells on Day 14 [2]: 99 | Percentage of CAR positive cells (T cells): 45.3%
